Assay results as given in patent US20220227864A1 (AVA LIFESCIENCE, published 2022).

Tests used:
[1] = molecular target: T1, CLL subset 2 typical BCR on TKO cells (FIG. 1B); assay: FACS on TKO cells expressing the BCR, hybridoma supernatant
T1 construct: The light chain is the VL3-21 variant and carries R110; also called CLL subset 2 BCR; BCR of interest
Source text: (§1) For the screening procedure, different vectors for the following heavy chain (HC) and light chain (LC) combinations of the corresponding CLL-BCRs were used in the previous transformation, and these combinations were used on the surface of the BCR reconstitution system: [0080] Control (transformation vector without BCR) (see FIG. 1A). [0081] Vector with HC/LC (VL3-21) typical of CLL subset 2 (see FIG. 1B). [0082] Vector with a non-CLL subset 2 HC/LC typical for CLL subset 2 (VL3-21; without target motif R110G) (see FIG. 1C) [0083] Vector with a HC typical for CLL subset 2/a non-CLL subset 2 LC (see FIG. 1D) [0084] Vector with a non-CLL subset 2 HC/a non-CLL subset 2 LC (see FIG. 1E) [0085] Vector with HC/LC typical for CLL subset 2 (VL3-21; including mutation R110G (target motif)) (see FIG. 1F).
(§2) In the first round of selection, supernatants from multiple clones were combined and examined with respect to their binding profile to the selection matrix. A positive binding profile is given if a specific binding to the “BCR-of-Interest” is shown. Groups showing such a profile were singulated, and the binding profile of each clone was characterized again on the selection matrix in a second round of selection. Binding of the monoclonal antibodies was verified using a FACS binding assay with a fluorescently labeled anti-mouse IgG antibody. […]

[2] = molecular target: T1, CLL subset 2 typical BCR on TKO cells …; assay: FACS binding assay on TKO cells, fluorescently labeled anti-mouse IgG
Source text: as §1, §2

T1 sequence (heavy, as listed by the source, chain 1 of 2): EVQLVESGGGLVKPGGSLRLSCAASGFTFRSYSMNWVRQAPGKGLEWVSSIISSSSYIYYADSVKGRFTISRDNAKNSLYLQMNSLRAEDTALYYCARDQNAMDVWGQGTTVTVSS
T1 sequence (light, as listed by the source, chain 2 of 2): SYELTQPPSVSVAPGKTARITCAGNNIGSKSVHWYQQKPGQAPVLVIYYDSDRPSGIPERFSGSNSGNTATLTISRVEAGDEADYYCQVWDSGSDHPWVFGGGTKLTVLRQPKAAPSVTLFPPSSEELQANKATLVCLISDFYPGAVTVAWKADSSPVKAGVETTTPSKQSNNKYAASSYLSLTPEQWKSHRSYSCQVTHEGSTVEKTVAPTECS

B1: AVA-mAb02 (antibody, V domains shown)
VH: QVQLQQPGAELVRPGVSVKISCKGSGYTFTDYAIHWVKQSHAKSLEWIGVISTYYGDSNYNQKFKGKATMTVNKSSSTAYMELARLTSDDSAIYYCSRDTSNFDYWGQGTTLTVSS
VL: DIQMTQSPSSMYASLGERVTITCKASQDINSHLTWFQQKPGKSPKTLIYRANRLVDGVPSRFSGSGSGQDYSLTISSLEYEDMGIYYCLQYDEFPRTFGGGTKLEIK
notes: Murine monoclonal antibody; Tested as hybridoma supernatant and detected with anti-mouse IgG; also called VL3-21 specific antibody
binding result [1]: binds

B2: AVA-mAb01 (antibody, V domains shown)
VH: QVQLQQSGPGLVQPSQSLSITCTVSGFSLTSYGIHWVRQSPGKGLEWLGVIWRGGGTDSNAAFMSRLSITKDNSKSQVFFKMNSLQADDTAIYYCARSRYDEEESMNYWGQGTSVTVSS
VL: QIVLTQSPASLSASVGETVTITCRASGNIHSYLAWYQQKQGKSPQLLVYNAKTLADGVPSRFSGSGSGTQYSLKINSLQPEDFGSYYCQHFWNTPPTFGAGTKLELK
notes: Murine monoclonal antibody from a hybridoma, detected with anti-mouse IgG; also called specific monoclonal antibody against subset-2; the selected antibody
binding result [2]: binds
